Laboratory results: US20090233993A1, “COMPOSITIONS AND METHODS FOR INHIBITING GSK3 ACTIVITY AND USES THEREOF” (Burnham Institute for Medical Research, priority 2008, published 2009)
“Also recorded” adds a separate entry of the source.

What was measured:
[1] = tested on: GSK-3α/β; assay: phospho-GSK-3α/β Western blot in rat PC12 cells; assay type: cell-based; settings: FG01 overexpression
Source text: Although the possibility that FG01 may modulate substrate specificity or accessibility to γ-secretase can not be excluded, it is equally possible that FG01 regulates other proteins/pathways functioning in APP processing and Aβ generation. […] Thus, the activities of GSK-3α/β were studied in the presence or absence of FG01 overexpression by examining levels of phospho-GSK-3α (Ser 21) and phospho-GSK-3β (Ser 9) (which represent inactivated forms of GSK-3) and by in vitro kinase assays.

[2] = tested on: PKC; assay: PKC activity in N2a cell lysates (32P peptide substrate); assay type: cell-based, mouse; settings: FG01 overexpression in N2a cells
Experimental: N2a cells were transfected with pcDNA or FG01. After lysis, cell lysates containing […] of total proteins were incubated with synthesized PKC specific peptide substrate and ^32P-ATP. The ^32P labeled peptides were captured and the radioactivities were quantified by scintillation. The activities of PKC were represented by the normalized radioactivities of the labeled peptide substrates. n=4.

[3] = tested on: cAMP levels; assay: cAMP assay in mouse N2a cells; assay type: cell-based; settings: FG01 overexpression
Source text: After 48-72 hrs, cells were lysed and cell lysates were subjected to immunoprecipitation with mouse IgG, rabbit IgG, myc antibody and adenylyl cyclase (AC) antibody (Santa Cruz Biotechnology, catalog number sc-1701), and then immunoblotted with antibodies against adenylyl cyclase (AC) and myc, respectively.
(§1) Commercial kits were used to assay in vitro activities of GSK-3β (Sigma) and PKA (Upstate). For GSK-3α activity, a commercial GSK-3β activity assay kit was used but the procedure to immunoprecititate GSK-3β was replaced with immunoprecipitation of GSK-3α using an anti-GSK-3α antibody (Cell Signaling). cAMP levels were assayed using a commercial kit (Biovision).

[4] = tested on: CDK5; assay: CDK5 levels by Western blot in transfected HeLa and MFB cells; assay type: cell-based, mouse and human; settings: FG01-transfected HeLa and MFB cells
Source text: The expression of CDK5, FG01 and α-tubulin were detected by Western blots in transfected HeLa and MFB cells.

[5] = tested on: PKA; assay: PKA in vitro activity and CREB phosphorylation in FG01-transfected cells; assay type: cell-based, mouse
Experimental: After lysis, cell lysates were assayed for PKA activity, using a commercial kit and following the manufacturer's protocol (Upstate, catalog number 17-134). n=4.
as §1
Inhibition of GSK-3 activity via phosphorylation of serine 21 in GSK-3α and serine 9 in GSK-3β can be mediated by protein kinase A (PKA) (Fang et al., 2000), so whether FG01 regulates PKA activity was studied. […] Moreover, increased sAPPα secretion upon FG01 overexpression (FIG. 29A) is also likely due to PKA activation, because PKA can stimulate budding of APP-containing vesicles from the Trans-Golgi Network (TGN) and facilitates sAPPα generation (Xu et al., 1996).

[6] = tested on: FG01 transgenic mouse brain; assay: brain-specific FG01 transgenic mice, brain analysis; assay type: in vivo
Source text: Brain-specific FG01 transgenic mice were generated using a FG01 expression cassette. FG01 has an N-terminal Myc tag and is driven by the human Thy-1 promoter for neuron-specific expression. A SV40 polyA fragment is linked at the 3′ end for enhancing expression. Genotyping P5 primer was complementary to hThy1 sequence. Genotyping P3 primer was complementary to SV40/Poly A sequence. Reverse transcription primer RT-P5 was complementary to sequence on the 5′ side of the FG01 sequence. Hemizygous FG01 transgenic mice were crossed with homozygous triple transgenic (3×Tg) AD mice harboring mutations in human APP and tau genes on a presenilin 1 (PS1) mutant background (Oddo et al., 2003). Procedures involving animals and their care conformed to institutional guidelines (Animal Resources Department at Burnham Institute for Medical Research).
N-terminally Myc-tagged FG01 cDNA was cloned into pHZ04 construct between the human Thy-1 promoter and the SV40 polyA regions. Purified, linearized minigenes containing these sequences were microinjected into prenuclear embryos from superovulated C57B16 females. Two primers (Genotyping-P5: 5′-[…]-3′; SEQ ID NO:25), and Genotyping-P3: 5′-[…]-3′; SEQ ID NO:26) located within the human Thy-1 promoter and the SV40 regions, respectively, were used for genotyping. Brain tissues from confirmed transgenic mice and littermate controls were used for RNA extraction, reverse transcription and PCR with RT-P5 primer (5′-AGAATTTGGCTGTTTGG-3′; SEQ ID NO:27) located within the FG01 cDNA region paired with the Genotyping-P3 primer to verify Myc-FG01 expression. Alternatively, brain lysates were immunoprecipitated and analyzed by Western blot with the Myc antibody to verify Myc-FG01 expression. Procedures involving animals and their care conformed to institutional guidelines (Animal Resources Department at Burnham Institute for Medical Research).
To validate FG01 function in vivo, an FG01 transgenic mouse model specifically overexpressing Myc-tagged FG01 in the brain was generated. A transgenic expression cassette driven by the human Thy-1 promoter was microinjected into C57B16 mice and primers specifically amplifying exogenous Myc-FG01 were used to genotype transgenic mice. Genomic DNA extracted from mouse tail samples was genotyped by PCR using Genotyping-P5 and Genotyping-P3 primers located in the human Thy1 and SV40 polyA regions, respectively. […] Total RNA was extracted from the brain of an FG01 transgenic mouse (1) and of a littermate control (0), followed by RT-PCR with the RT-P5 primer located within the FG01-coding region and the Genotyping-P3 primer for detecting Myc-FG01 mRNA. Immunoprecipitation/Western blot confirmed that exogenous Myc-tagged FG01 protein was expressed in brain tissues of transgenic mice. Brain samples from FG01 transgenic (Tg) mice and littermate controls (Non-Tg) were analyzed for levels of phosphorylated/total CREB, phosphorylated/total GSK-3, and various tau forms by direct Western blot. Myc-FG01 was detected by immunoprecipitation-Western blot using the Myc antibody. Two mouse lines with similar exogenous FG01 expression levels were generated and the results obtained from the two lines (including their crossing with 3×Tg mice as described below) were similar. […] Brain lysates from FG01-Tg and Non-Tg mice were analyzed for GSK-3β activity. Results were normalized to those of Non-Tg samples.

B1: FG01: 141 amino acid transmembrane protein encoded by mouse retrogene fg01 (SEQ ID NO:2); expressed from transfected vector or transgene (protein)
chain: MQSQQRNIGYFNHLKADSRNITYSMTFSTKSSNQNFIIFLNEVQAAIIGHERCDLLPVLNELHPDALPDGRIWLFGLNPYFFQHNSLCMRGTPKRIGLQGCAQVGFLVLFVMPLLIPSVTAELPGSSETTTLAHLAGATGP
modifications: Myc and His6 tags; homo sapien
notes: expressed from transfected vector or transgene
For B1, the “phospho-GSK-3α (Ser21) and phospho-GSK-3β (Ser9) levels” value [1] was “more highly phosphorylated”, the PKC activity [2] was “increased” and the “increase of cAMP levels” value [3] was 38%. The “levels of CDK5” value [4] was “did not change”, the PKA activity ([5]; FG01-transfected N2a/Swe cells vs control) was “significantly increase; also recorded: significantly more PKA activity” and the “phosphorylation of CREB (PKA substrate)” value ([5]; FG01 overexpression) was “increased”. For the same molecule, the “levels of phosphorylated (inactive) GSK-3α/β in brain” value ([6]; FG01 transgenic vs littermate non-Tg mice) was “increased”, the “CREB phosphorylation in brain” value ([6]; FG01 transgenic vs non-Tg mice) was “Increased” and the “phosphorylation of endogenous mouse brain tau” value ([6]; FG01 transgenic vs non-Tg mice) was “decreased”. The “GSK-3β activity in brain” value ([6]; FG01 transgenic vs non-Tg mice, brain lysates) was “reduced” and the behavioral phenotypes ([6]; observation of FG01 transgenic mice) was “no obvious aberrant behavioral phenotypes”.
